Measured values taken from patent publication US20170015742A1 (published 2017).

T1: recombinant cynomolgus PDGF-BB (cynomolgus monkey, UniProt P01127 82-190 (human entry), limits assumed)
T1 chain: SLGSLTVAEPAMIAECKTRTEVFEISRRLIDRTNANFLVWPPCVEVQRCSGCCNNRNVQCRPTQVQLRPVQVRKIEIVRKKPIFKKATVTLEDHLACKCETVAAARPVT

B1: 4G8.3-SL-9E8.4 DVD-Ig (PR-1564012) (bispecific antibody, human IgG1, kappa, L234A L235A)
heavy: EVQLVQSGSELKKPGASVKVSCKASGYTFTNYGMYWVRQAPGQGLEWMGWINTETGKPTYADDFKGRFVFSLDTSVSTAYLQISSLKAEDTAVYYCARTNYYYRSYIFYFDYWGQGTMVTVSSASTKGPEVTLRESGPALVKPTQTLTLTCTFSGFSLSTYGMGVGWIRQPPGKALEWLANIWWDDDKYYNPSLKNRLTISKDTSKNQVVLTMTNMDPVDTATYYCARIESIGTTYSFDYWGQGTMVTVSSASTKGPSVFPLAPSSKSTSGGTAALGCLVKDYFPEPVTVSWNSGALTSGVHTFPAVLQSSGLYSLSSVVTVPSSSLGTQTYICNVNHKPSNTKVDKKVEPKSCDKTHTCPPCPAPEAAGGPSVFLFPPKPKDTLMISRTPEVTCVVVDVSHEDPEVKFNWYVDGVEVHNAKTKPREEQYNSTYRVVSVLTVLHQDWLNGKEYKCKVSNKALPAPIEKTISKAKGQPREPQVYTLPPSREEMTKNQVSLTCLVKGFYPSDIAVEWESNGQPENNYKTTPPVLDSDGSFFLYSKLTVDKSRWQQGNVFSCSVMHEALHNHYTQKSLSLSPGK
light: DTVLTQSPATLSLSPGERATLSCRASESVSTHMHWYQQKPGQAPRLLIYGASNLESGVPARFSGSGSGTDFTLTISSLEPEDFAVYFCQQSWNDPFTFGQGTKLEIKRTVAAPSVFIFPPEFVLTQSPGTLSLSPGERATLSCERSSGDIGDSYVSWYQQKPGQAPRLVIYADDQRPSGIPDRFSGSGSGTDFTLTISRLEPEDFAVYYCQSYDINIDIVFGGGTKVEIKGTVAAPSVFIFPPSDEQLKSGTASVVCLLNNFYPREAKVQWKVDNALQSGNSQESVTEQDSKDSTYSLSSTLTLSKADYEKHKVYACEVTHQGLSSPVTKSFNRGEC
notes: DVD-Ig, outer hBDB-4G8.3 (VEGF), inner hBDI-9E8.4 (PDGF); IgG1 L234A, L235A / kappa
B2: BDI-5G2-F9 (antibody, IgG2b, V domains shown)
VH: QVTLKESGPGILQPSQTLSLTCTFSGFSLSTFGMGVGWIRQPSGKGLEWLANIWWDDDKYYNPSLKNRLTISKDTSNSQAFLEITNVDTADTATYYCARISTGISSYYVMDAWGQGASVTVSS
VL: QFTLTQPKSVSGSLRSTITIPCERSSGDIGDTYVSWYQQHLGRPPINVIYGNDQRPSEVSDRFSGSIDSSSNSASLTITNLQMDDEADYFCQSYDSDIDIVFGGGTKLTVL
notes: Rat hybridoma monoclonal antibody
B3: hBDI-9E8.8 (antibody, V domains shown)
VH: EVTLRESGPALVKPTQTLTLTCTFSGFSLSTYGMGVGWIRQPPGKGLEWLANIWWDDDKYYNPSLKNRLTISKDTSKNQAVLTITNMDPVDTATYYCARIESIGTTYSFDYWGQGTMVTVSS
VL: EFVLTQSPGTLSLSPGERATLSCERSSGDIGDSYVSWYQQKPGQAPRLVIYADDQRPSGIPDRFSGSGSGTDFTLTISRLEPEDFAVYYCQSYDINIDIVFGGGTKVEIK
notes: Humanized IgG
B4: BDI-6A3-A9 (antibody, IgG2b, V domains shown)
VH: EVQLVESGGGLVQPGRSLKFSCAASGFSFSDSAMAWVRQAPKKGLEWVATIIYDGSGTYYRDSVKGRFTISRDNAKSTLYLQMDSLRSEDTATYYCARLGFNYGNYGYYVMDAWGQGASVTVSS
VL: QFTLTQPKSVSGSLRNTITIPCERSSGDIGDSYVSWYQQHLGRPPINVIFADDQRPSEVSDRFSGSIDSSSNSASLTITNLQMDDEADYFCQSYDSNIDINIVFGGGTKLTVL
notes: as for B2
B5: 9E10.1_GS_CL-33675 anti-VEGF-A/anti-PDGF-BB DVD-Ig (PR-1610561) (bispecific antibody, human IgG1, kappa, L234A L235A)
heavy: EIQLVQSGSELKKPGASVKVSCKASGYTFTNYGMYWVKQAPGQGLEYMGWIDTETGRPTYADDFKGRFVFSLDTSVSTAYLQISSLKAEDTAVYFCARWSGDTTGIRGPWFAYWGQGTLVTVSSGGGGSGGGGSEVTLRESGPALVKPTQTLTLTCTFSGFSLSTYGMGVGWIRQPPGKALEWLANIWWDDDKYYNPSLKNRLTISKDTSKNQVVLTMTNMDPVDTATYYCARIESSGPKYSFDYWGQGTMVTVSSASTKGPSVFPLAPSSKSTSGGTAALGCLVKDYFPEPVTVSWNSGALTSGVHTFPAVLQSSGLYSLSSVVTVPSSSLGTQTYICNVNHKPSNTKVDKKVEPKSCDKTHTCPPCPAPEAAGGPSVFLFPPKPKDTLMISRTPEVTCVVVDVSHEDPEVKFNWYVDGVEVHNAKTKPREEQYNSTYRVVSVLTVLHQDWLNGKEYKCKVSNKALPAPIEKTISKAKGQPREPQVYTLPPSREEMTKNQVSLTCLVKGFYPSDIAVEWESNGQPENNYKTTPPVLDSDGSFFLYSKLTVDKSRWQQGNVFSCSVMHEALHNAYTQKSLSLSPGK
light: DIRMTQSPSSLSASVGDRVTIECLASEDIYSDLAWYQQKPGKSPKLLIYNANGLQNGVPSRFSGSGSGTDYSLTISSLQPEDVATYFCQQYNYFPGTFGQGTKLEIKGGSGGGGSGGEIVLTQSPGTLSLSPGERATLSCRASSGSIWYSFVSWYQQKPGQAPRLLIYADDQRASGIPDRFSGSGSGTDFTLTISRLEPEDFAVYYCQSYGINIDVVFGGGTKVEIKRTVAAPSVFIFPPSDEQLKSGTASVVCLLNNFYPREAKVQWKVDNALQSGNSQESVTEQDSKDSTYSLSSTLTLSKADYEKHKVYACEVTHQGLSSPVTKSFNRGEC
B6: 4G8.3-GS-9E8.4 DVD-Ig (PR-1564010) (bispecific antibody, human IgG1, kappa, L234A L235A)
heavy: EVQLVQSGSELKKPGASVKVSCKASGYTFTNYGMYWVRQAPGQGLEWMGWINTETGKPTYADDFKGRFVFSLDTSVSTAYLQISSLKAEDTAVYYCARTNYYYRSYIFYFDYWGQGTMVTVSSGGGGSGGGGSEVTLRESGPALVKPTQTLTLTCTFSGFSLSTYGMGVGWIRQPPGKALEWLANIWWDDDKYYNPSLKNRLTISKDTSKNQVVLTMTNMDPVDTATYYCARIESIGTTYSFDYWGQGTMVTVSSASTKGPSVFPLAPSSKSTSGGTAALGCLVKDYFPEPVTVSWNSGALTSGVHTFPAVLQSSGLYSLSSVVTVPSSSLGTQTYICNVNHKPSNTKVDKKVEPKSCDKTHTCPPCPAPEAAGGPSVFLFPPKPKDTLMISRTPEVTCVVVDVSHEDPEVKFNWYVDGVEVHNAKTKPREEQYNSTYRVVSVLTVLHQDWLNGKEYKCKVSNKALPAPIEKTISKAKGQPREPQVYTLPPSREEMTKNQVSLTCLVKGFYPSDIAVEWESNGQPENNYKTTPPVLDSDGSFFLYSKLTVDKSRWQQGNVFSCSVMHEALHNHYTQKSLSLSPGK
light: DTVLTQSPATLSLSPGERATLSCRASESVSTHMHWYQQKPGQAPRLLIYGASNLESGVPARFSGSGSGTDFTLTISSLEPEDFAVYFCQQSWNDPFTFGQGTKLEIKRGGSGGGGSGEFVLTQSPGTLSLSPGERATLSCERSSGDIGDSYVSWYQQKPGQAPRLVIYADDQRPSGIPDRFSGSGSGTDFTLTISRLEPEDFAVYYCQSYDINIDIVFGGGTKVEIKGTVAAPSVFIFPPSDEQLKSGTASVVCLLNNFYPREAKVQWKVDNALQSGNSQESVTEQDSKDSTYSLSSTLTLSKADYEKHKVYACEVTHQGLSSPVTKSFNRGEC
notes: as for B1
B7: 4G8.3-LS-9E8.4 DVD-Ig (PR-1564013) (bispecific antibody, human IgG1, kappa, L234A L235A)
heavy: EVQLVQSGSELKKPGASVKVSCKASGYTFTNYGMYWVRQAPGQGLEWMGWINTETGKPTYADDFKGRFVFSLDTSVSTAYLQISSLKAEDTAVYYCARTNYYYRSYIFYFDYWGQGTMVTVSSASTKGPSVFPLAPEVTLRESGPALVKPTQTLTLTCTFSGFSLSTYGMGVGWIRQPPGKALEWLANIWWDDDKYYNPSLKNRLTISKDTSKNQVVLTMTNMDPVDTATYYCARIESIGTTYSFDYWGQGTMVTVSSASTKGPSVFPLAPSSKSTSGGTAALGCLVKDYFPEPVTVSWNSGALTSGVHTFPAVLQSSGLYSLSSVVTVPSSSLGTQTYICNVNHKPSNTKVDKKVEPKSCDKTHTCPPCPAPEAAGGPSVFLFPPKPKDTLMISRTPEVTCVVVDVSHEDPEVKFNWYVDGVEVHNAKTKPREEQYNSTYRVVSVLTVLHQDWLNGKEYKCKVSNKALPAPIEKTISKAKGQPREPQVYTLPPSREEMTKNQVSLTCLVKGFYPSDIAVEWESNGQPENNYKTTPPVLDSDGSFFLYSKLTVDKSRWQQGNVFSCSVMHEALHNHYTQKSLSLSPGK
light: DTVLTQSPATLSLSPGERATLSCRASESVSTHMHWYQQKPGQAPRLLIYGASNLESGVPARFSGSGSGTDFTLTISSLEPEDFAVYFCQQSWNDPFTFGQGTKLEIKRTVAAPEFVLTQSPGTLSLSPGERATLSCERSSGDIGDSYVSWYQQKPGQAPRLVIYADDQRPSGIPDRFSGSGSGTDFTLTISRLEPEDFAVYYCQSYDINIDIVFGGGTKVEIKGTVAAPSVFIFPPSDEQLKSGTASVVCLLNNFYPREAKVQWKVDNALQSGNSQESVTEQDSKDSTYSLSSTLTLSKADYEKHKVYACEVTHQGLSSPVTKSFNRGEC
notes: as for B1
B8: BDI-1E1-D5 (antibody, IgG2b, V domains shown)
VH: EVKLQQSGDELVRPGASVKMSCKASGYTFTDYVMHWVKQSPGQGLEWIGTIIPLIDTTSYNQKFKGKATLTADKSSNTAYMELSRLTSEDSAVYYCARTSPYYYSSYDVMDAWGQGASVTVSS
VL: NIQLTQSPSLLSASVGDRVTLSCKGSQNINNYLAWYQQKLGEAPKLLIYKTNNLQTGIPSRFSGCGSGTDYTLTISSLHSEDLATYYCYQYDNGYTFGAGTKLELK
notes: as for B2

Experiments:
[1] = target: recombinant human PDGF-BB (human, UniProt P01127 82-190); experiment: cell-based or functional assay
[2] = target: T2, recombinant human VEGF165 (human, UniProt P15692 207-395); experiment: competition ELISA: DVD-Ig titrated against biotinylated hVEGF165 binding to coated hVEGFR2-Fc
T2 construct: also called hVEGF165; huVEGF-A165
Method: To identify molecules that could block the binding of hVEGF₁₆₅ to the hVEGF-R2 (KDR/Flk-1) receptor, a competition ELISA was performed. […] Plates were then washed four times with wash buffer (TBS, 0.05% Tween-20) and blocked with Superblock blocking buffer (Thermo Scientific, cat#37535). […] The pre-incubated sample/hVEGF₁₆₅ complex was added to the coated plate at 50 μL in duplicate and incubated for 30 minutes at 25° C. with shaking. Following incubation, plates were washed four times with wash buffer. Streptavidin-polyHRP-40 (Fitzgerald cal#65r-s104phrp) was diluted in assay diluent (10% Superblock containing 0.05% surfactamps) and added to plates (50 μL) for 45 minutes at 25° C. with shaking. Plates were washed four times with wash buffer and developed with the addition of Enhanced K-blue TMB substrate (Neogen cat#308177). The reaction was stopped with 2N sulfuric acid (VWR, cat# BDH3500-1) and the absorbance was read at 450 nm-570 nm. A decrease in observed optical density indicates the test molecule is blocking the hVEGF₁₆₅ binding to the hVEGF-R2-Fc. Data was analyzed using Softmax Pro 4.8 software and IC₅₀ values calculated using a sigmoidal dose response (variable slope) fit in GraphPad Prism 5.

[3] = target: T3, recombinant human PDGF-BB (human, UniProt P01127 82-190); experiment: cell-based or functional assay; remark: listed apart in the source
T3 sequence (P01127 82-190 limits assumed): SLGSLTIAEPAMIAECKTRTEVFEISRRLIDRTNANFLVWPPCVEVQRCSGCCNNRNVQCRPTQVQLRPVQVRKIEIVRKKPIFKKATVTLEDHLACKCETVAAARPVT

[4] = target: T3, recombinant human PDGF-BB; experiment: competition ELISA: blocks biotin-hPDGF-BB binding to coated hPDGF-Rβ-Fc
Method: Plates were then washed four times with wash buffer (TBS, 0.05% Tween-20) and blocked with Superblock blocking buffer (Thermo Scientific, cat#37535). During the blocking step, supernatants, antibodies, benchmark compounds or DVD-Ig were diluted in assay diluent (10% Superblock containing 0.05% surfactamps) and an eight point titration of each sample molecule was performed. […] Following incubation, plates were washed four times with wash buffer. Detection reagent Streptavidin-polyHRP-40 (Fitzgerald, cat#65r-s104phrp) was diluted in assay diluent and added to plates (50 μL) for 45 minutes at 25° C. with shaking. Plates were washed four times with wash buffer and developed with the addition of Enhanced K-blue TMB substrate (Neogen, cat#308177). The reaction was stopped with 2N sulfuric acid (VWR, cat# BDH3500-1) and the absorbance was read at 450 nm-570 nm. […] Data was analyzed using Softmax Pro 4.8 software and IC₅₀ values calculated using a sigmoidal dose response (variable slope) fit in GraphPad Prism 5.

Human PDGF-BB [5] = target: T4, Human PDGF-BB (human, UniProt P01127 82-190); experiment: SPR (Biacore), antibody captured via anti-human Fc, antigen in solution
T4 construct: Recombinant human PDGF-BB, a homodimer of two B chains; also called hPDGF-BB; huPDGF-BB
In short: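 Antibodies or DVD-Ig molecules (1 μg/ml) were captured on an anti-human Fc CM5 surface, with antigen injected in solution and responses referenced to the capture-only surface. Rate constants came from a global 1:1 Langmuir fit, and KD = koff/kon.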

Human PDGF-BB [6] = target: T4, Human PDGF-BB; experiment: SPR (Biacore), antibody captured via anti-human Fc, antigen in solution; footnote *: heterogeneous off-rate
Method: For example, approximately 9000 RU of goat anti-human Fc specific polyclonal antibody (Thermo Fisher Scientific Inc., Rockford, Ill.) diluted in 10 mM sodium acetate (pH 4.5) is directly immobilized across a CM5 research grade biosensor chip using a standard amine coupling kit according to manufacturer's instructions and procedures at 25 μg/ml. Unreacted moieties on the biosensor surface were blocked with ethanolamine. For kinetic analysis, rate equations derived from the 1:1 Langmuir binding model were fitted simultaneously to multiple antigen injections (using global fit analysis) with the use of Scrubber 2 (BioLogic Software), Biacore Biaevaluation 4.0.1 software or Biacore T100 Evaluation software. Purified antibodies or DVD-Ig molecules were diluted in running buffer for capture across goat anti-human Fc reaction surfaces. Antibodies or DVD-Ig molecules to be captured as a ligand (1 μg/ml) were injected over reaction matrices at a flow rate of 10 μl/minute. During the assay, all measurements were referenced against the capture surface alone (i.e., with no captured antibody or DVD-Ig molecule). […] The equilibrium dissociation constant KD (M) of the reaction between antibodies and the target antigen was then calculated from the kinetic rate constants by the following formula: KD=Koff/Kₒₙ. Binding was recorded as a function of time and kinetic rate constants were calculated.

[7] = target: T1, recombinant cynomolgus PDGF-BB; experiment: cell-based or functional assay
[8] = target: recombinant murine PDGF-BB (mouse, UniProt P31240 82-190); experiment: cell-based or functional assay
recombinant rat PDGF-BB = recombinant rat PDGF-BB (rat, UniProt Q05028 74-182); experiment: cell-based or functional assay
[9] = target: recombinant human PDGF-BB (human, UniProt P01127 82-190); experiment: cell-based or functional assay; remark: listed apart in the source
[10] = target: T2, recombinant human VEGF165; experiment: cell-based or functional assay

T2 sequence (P15692 other isoform, or with tags, fused parts or gaps limits assumed): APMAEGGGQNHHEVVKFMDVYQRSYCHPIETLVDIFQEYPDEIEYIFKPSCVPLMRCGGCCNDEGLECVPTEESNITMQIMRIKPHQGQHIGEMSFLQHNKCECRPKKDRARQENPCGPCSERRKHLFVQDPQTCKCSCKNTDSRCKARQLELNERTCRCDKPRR
T4 sequence (P01127 82-190 limits assumed): as the sequence (P01127 82-190 limits assumed) above
recombinant murine PDGF-BB, sequence (P31240 82-190 limits assumed): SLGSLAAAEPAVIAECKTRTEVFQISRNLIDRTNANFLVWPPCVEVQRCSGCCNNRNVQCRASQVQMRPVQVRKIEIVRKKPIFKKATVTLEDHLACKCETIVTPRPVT
recombinant rat PDGF-BB, sequence (Q05028 74-182 limits assumed): as the sequence (P31240 82-190 limits assumed) above, with I83V, I102V counted along it

| IC50 [2] [nM] | Phospho-Tyr751/hPDGF-BB Neutralization [3] [nM] | huPDGF-BB Neutralization Potency (nM) in NIH-3T3 Cells [3] [nM] | IC50 [4] [nM] | further results | Binder |
| --- | --- | --- | --- | --- | --- |
| 0.086 |  |  |  | NIH-3T3 hPDGF-BB Potency IC50 [1]: 0.365 nM | B1 |
|  | 0.923 | 0.741 | 1.06 |  | B2 |
|  |  |  |  | kon (Human PDGF-BB [5]): ≥ 1e+07 M⁻¹ s⁻¹; Kd (Human PDGF-BB [6]): ≤ 0.017 nM | B3 |
|  | 1.62 | > 5 | 3.23 |  | B4 |
|  |  |  |  | Potency IC50 (nM) cynoPDGF-BB (NIH-3T3 proliferation) [7]: 0.035 nM; Potency IC50 (nM) mPDGF-BB (NIH-3T3 proliferation) [8]: 0.032 nM; Potency IC50 (nM) ratPDGF-BB (NIH-3T3 proliferation) (recombinant rat PDGF-BB): 0.038 nM; Co-incubation Potency IC50 (nM) hPDGF-BB (NIH-3T3 proliferation, DVD-Ig pre-incubated with excess hVEGF165) [9]: 0.04 nM | B5 |
| 0.126 |  |  |  | HMVEC-d hVEGF165 Potency IC50 [10]: 0.096 nM | B6 |
| 0.092 |  |  |  | HMVEC-d hVEGF165 Potency IC50 [10]: 0.06 nM; NIH-3T3 hPDGF-BB Potency IC50 [1]: 0.152 nM | B7 |
|  | 1.06 | > 5 | > 10 |  | B8 |
